Test results as given in paper PMC5907831 (Journal of Molecular Cell Biology, 2017).
Like-named read-outs stand apart in the source and are kept apart here. Values belong to the molecule of their own block, whether it stands above or below them.

B2: SRP72^1–163 (human SRP72 N-terminal TPR domain, SRP68-binding domain) (domain or fragment, UniProt O76094 1-163, looked up)
chain: MASGGSGGVSVPALWSEVNRYGQNGDFTRALKTVNKILQINKDDVTALHCKVVCLIQNGSFKEALNVINTHTKVLANNSLSFEKAYCEYRLNRIENALKTIESANQQTDKLKELYGQVLYRLERYDECLAVYRDLVRNSQDDYDEERKTNLSAVVAAQSNWEK

Key:
[1] = Stability/solubility of SRP68 fragments and of SRP72 without cap; type: physicochemical; conditions: preliminary experiments
SEC = target: the molecule itself; assay: SEC
AUC = target: the molecule itself; assay: AUC
[2] = Size-exclusion chromatography; type: physicochemical; conditions: Superdex 75 10/300 GL; 20 mM Tris-HCl pH 8.0, 500 mM NaCl
[3] = target: T1, SRP72 V136A/R137A double mutant (human, UniProt O76094 1-163, V136A | R137A); assay: pull-down
T1 sequence (looked up): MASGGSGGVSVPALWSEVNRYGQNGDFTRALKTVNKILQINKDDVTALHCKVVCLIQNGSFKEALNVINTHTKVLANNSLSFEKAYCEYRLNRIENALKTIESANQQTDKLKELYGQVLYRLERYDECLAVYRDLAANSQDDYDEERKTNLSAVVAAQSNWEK

[4] = target: B2; assay: MST
[5] = ref Iakhiaeva et al., 2009, cited from earlier work
SRP72 = assay: Binding ability of Flag-tagged SRP68 mutants from HCT116 cell lysate; type: cell-based, human; conditions: HCT116 cells; Flag-tagged SRP68 mutant from cell lysate
SRP68 = assay: Binding ability of SRP72 mutants with Flag-tagged SRP68 from HCT116 cell lysate; type: cell-based, human; conditions: HCT116 cells

Molecule: 570–605: C-terminal SRP68 fragment from previous study (KQANLVHFPPGFQPIPCKPLFFDLALNHVAFPPLED; UniProt Q9UHB9 570-605, looked up, fragment) [reference compound]
- degradation / solubility of fragment [1]: either prone to degradation or not soluble

B1: residues 530–620: C-terminal SRP68 fragment from previous study (protein, UniProt Q9UHB9 530-620, looked up, fragment)
chain: AAILDANDAHQTETSSSQVKDNKPLVERFETFCLDPSLVTKQANLVHFPPGFQPIPCKPLFFDLALNHVAFPPLEDKLEQKTKSGLTGYIK
- degradation / solubility of fragment [1]: either prone to degradation or not soluble

Molecule: B2
- stoichiometry N (SEC): 2
- stoichiometry N (AUC): 4

B3: V136A/R137A: monomeric double mutant of SRP72 in helix α8 (protein)
chain: MASGGSGGVSVPALWSEVNRYGQNGDFTRALKTVNKILQINKDDVTALHCKVVCLIQNGSFKEALNVINTHTKVLANNSLSFEKAYCEYRLNRIENALKTIESANQQTDKLKELYGQVLYRLERYDECLAVYRDLAANSQDDYDEERKTNLSAVVAAQSNWEK
modifications: left off: His6, N-terminal, state not stated
- oligomeric state in solution (SEC) [2]: eluted as monomers

B4: Y132A/R133A: double mutant of SRP72 in helix α8 (protein)
chain: MASGGSGGVSVPALWSEVNRYGQNGDFTRALKTVNKILQINKDDVTALHCKVVCLIQNGSFKEALNVINTHTKVLANNSLSFEKAYCEYRLNRIENALKTIESANQQTDKLKELYGQVLYRLERYDECLAVAADLVRNSQDDYDEERKTNLSAVVAAQSNWEK
modifications: left off: His6, N-terminal, state not stated
- oligomeric state in solution (SEC) [2]: eluted as monomers

B5: apo-SRP72: human SRP72 N-terminal TPR domain, residues 1–163, apo form (protein)
chain: MASGGSGGVSVPALWSEVNRYGQNGDFTRALKTVNKILQINKDDVTALHCKVVCLIQNGSFKEALNVINTHTKVLANNSLSFEKAYCEYRLNRIENALKTIESANQQTDKLKELYGQVLYRLERYDECLAVYRDLVRNSQDDYDEERKTNLSAVVAAQSNWEK
modifications: left off: His6, N-terminal, cleaved
- oligomeric state in solution (SEC) [2]: mainly as a dimer in solution

- binding result [3]: binds
- Kd [4]: 0.73 ± 0.2 µM
Molecule: PLFFDLALNHVAFPPLEDKLEQK (peptide, UniProt Q9UHB9 588-610, looked up) [GST-tagged SRP68 residues 588−610 (23-residue peptide of SRP68)]

B6: SRP68/72 complex: heterodimer of SRP68 and SRP72 (protein, UniProt Q9UHB9 1-627; O76094 2-671, looked up)
Signal recognition particle … 1: MAAEKQVPGGGGGGGSGGGGGSGGGGSGGGRGAGGEENKENERPSAGSKANKEFGDSLSLEILQIIKESQQQHGLRHGDFQRYRGYCSRRQRRLRKTLNFKMGNRHKFTGKKVTEELLTDNRYLLLVLMDAERAWSYAMQLKQEANTEPRKRFHLLSRLRKAVKHAEELERLCESNRVDAKTKLEAQAYTAYLSGMLRFEHQEWKAAIEAFNKCKTIYEKLASAFTEEQAVLYNQRVEEISPNIRYCAYNIGDQSAINELMQMRLRSGGTEGLLAEKLEALITQTRAKQAATMSEVEWRGRTVPVKIDKVRIFLLGLADNEAAIVQAESEETKERLFESMLSECRDAIQVVREELKPDQKQRDYILEGEPGKVSNLQYLHSYLTYIKLSTAIKRNENMAKGLQRALLQQQPEDDSKRSPRPQDLIRLYDIILQNLVELLQLPGLEEDKAFQKEIGLKTLVFKAYRCFFIAQSYVLVKKWSEALVLYDRVLKYANEVNSDAGAFKNSLKDLPDVQELITQVRSEKCSLQAAAILDANDAHQTETSSSQVKDNKPLVERFETFCLDPSLVTKQANLVHFPPGFQPIPCKPLFFDLALNHVAFPPLEDKLEQKTKSGLTGYIKGIFGFRS
Signal recognition particle … 2: ASGGSGGVSVPALWSEVNRYGQNGDFTRALKTVNKILQINKDDVTALHCKVVCLIQNGSFKEALNVINTHTKVLANNSLSFEKAYCEYRLNRIENALKTIESANQQTDKLKELYGQVLYRLERYDECLAVYRDLVRNSQDDYDEERKTNLSAVVAAQSNWEKVVPENLGLQEGTHELCYNTACALIGQGQLNQAMKILQKAEDLCRRSLSEDTDGTEEDPQAELAIIHGQMAYILQLQGRTEEALQLYNQIIKLKPTDVGLLAVIANNIITINKDQNVFDSKKKVKLTNAEGVEFKLSKKQLQAIEFNKALLAMYTNQAEQCRKISASLQSQSPEHLLPVLIQAAQLCREKQHTKAIELLQEFSDQHPENAAEIKLTMAQLKISQGNISKACLILRSIEELKHKPGMVSALVTMYSHEEDIDSAIEVFTQAIQWYQNHQPKSPAHLSLIREAANFKLKYGRKKEAISDLQQLWKQNPKDIHTLAQLISAYSLVDPEKAKALSKHLPSSDSMSLKVDVEALENSAGATYIRKKGGKVTGDSQPKEQGQGDLKKKKKKKKGKLPKNYDPKVTPDPERWLPMRERSYYRGRKKGKKKDQIGKGTQGATAGASSELDASKTVSSPPTSPRPGSAATVSASTSNIIPPRHQKPAGAPATKKKQQQKKKKGGKGGW
- complex stability ([5]; 1 M NaCl): remains stable
- complex stability ([5]; 2 M urea): stability in 2 M urea

B7: SRP68 F590L: cancer-associated SRP68 mutant (protein, UniProt Q9UHB9 1-627, looked up, variant F590L)
Signal recognition particle …: MAAEKQVPGGGGGGGSGGGGGSGGGGSGGGRGAGGEENKENERPSAGSKANKEFGDSLSLEILQIIKESQQQHGLRHGDFQRYRGYCSRRQRRLRKTLNFKMGNRHKFTGKKVTEELLTDNRYLLLVLMDAERAWSYAMQLKQEANTEPRKRFHLLSRLRKAVKHAEELERLCESNRVDAKTKLEAQAYTAYLSGMLRFEHQEWKAAIEAFNKCKTIYEKLASAFTEEQAVLYNQRVEEISPNIRYCAYNIGDQSAINELMQMRLRSGGTEGLLAEKLEALITQTRAKQAATMSEVEWRGRTVPVKIDKVRIFLLGLADNEAAIVQAESEETKERLFESMLSECRDAIQVVREELKPDQKQRDYILEGEPGKVSNLQYLHSYLTYIKLSTAIKRNENMAKGLQRALLQQQPEDDSKRSPRPQDLIRLYDIILQNLVELLQLPGLEEDKAFQKEIGLKTLVFKAYRCFFIAQSYVLVKKWSEALVLYDRVLKYANEVNSDAGAFKNSLKDLPDVQELITQVRSEKCSLQAAAILDANDAHQTETSSSQVKDNKPLVERFETFCLDPSLVTKQANLVHFPPGFQPIPCKPLLFDLALNHVAFPPLEDKLEQKTKSGLTGYIKGIFGFRS
- binding ability compared with wild-type (HCT116) (SRP72): severely compromised or abolished the binding ability

B8: SRP72 Y86C: cancer-associated SRP72 mutant (protein, UniProt O76094 2-671, looked up, variant Y86C)
Signal recognition particle …: ASGGSGGVSVPALWSEVNRYGQNGDFTRALKTVNKILQINKDDVTALHCKVVCLIQNGSFKEALNVINTHTKVLANNSLSFEKACCEYRLNRIENALKTIESANQQTDKLKELYGQVLYRLERYDECLAVYRDLVRNSQDDYDEERKTNLSAVVAAQSNWEKVVPENLGLQEGTHELCYNTACALIGQGQLNQAMKILQKAEDLCRRSLSEDTDGTEEDPQAELAIIHGQMAYILQLQGRTEEALQLYNQIIKLKPTDVGLLAVIANNIITINKDQNVFDSKKKVKLTNAEGVEFKLSKKQLQAIEFNKALLAMYTNQAEQCRKISASLQSQSPEHLLPVLIQAAQLCREKQHTKAIELLQEFSDQHPENAAEIKLTMAQLKISQGNISKACLILRSIEELKHKPGMVSALVTMYSHEEDIDSAIEVFTQAIQWYQNHQPKSPAHLSLIREAANFKLKYGRKKEAISDLQQLWKQNPKDIHTLAQLISAYSLVDPEKAKALSKHLPSSDSMSLKVDVEALENSAGATYIRKKGGKVTGDSQPKEQGQGDLKKKKKKKKGKLPKNYDPKVTPDPERWLPMRERSYYRGRKKGKKKDQIGKGTQGATAGASSELDASKTVSSPPTSPRPGSAATVSASTSNIIPPRHQKPAGAPATKKKQQQKKKKGGKGGW
- binding ability compared with wild-type (HCT116) (SRP68): severely compromised or abolished the binding ability

B9: SRP72 V53I: cancer-associated SRP72 mutant (protein, UniProt O76094 2-671, looked up, variant V53I)
Signal recognition particle …: ASGGSGGVSVPALWSEVNRYGQNGDFTRALKTVNKILQINKDDVTALHCKVICLIQNGSFKEALNVINTHTKVLANNSLSFEKAYCEYRLNRIENALKTIESANQQTDKLKELYGQVLYRLERYDECLAVYRDLVRNSQDDYDEERKTNLSAVVAAQSNWEKVVPENLGLQEGTHELCYNTACALIGQGQLNQAMKILQKAEDLCRRSLSEDTDGTEEDPQAELAIIHGQMAYILQLQGRTEEALQLYNQIIKLKPTDVGLLAVIANNIITINKDQNVFDSKKKVKLTNAEGVEFKLSKKQLQAIEFNKALLAMYTNQAEQCRKISASLQSQSPEHLLPVLIQAAQLCREKQHTKAIELLQEFSDQHPENAAEIKLTMAQLKISQGNISKACLILRSIEELKHKPGMVSALVTMYSHEEDIDSAIEVFTQAIQWYQNHQPKSPAHLSLIREAANFKLKYGRKKEAISDLQQLWKQNPKDIHTLAQLISAYSLVDPEKAKALSKHLPSSDSMSLKVDVEALENSAGATYIRKKGGKVTGDSQPKEQGQGDLKKKKKKKKGKLPKNYDPKVTPDPERWLPMRERSYYRGRKKGKKKDQIGKGTQGATAGASSELDASKTVSSPPTSPRPGSAATVSASTSNIIPPRHQKPAGAPATKKKQQQKKKKGGKGGW
- binding ability compared with wild-type (HCT116) (SRP68): severely compromised or abolished the binding ability
